Source: paper PMC2383916
Where two headings read alike, the source gives them in different places. Values belong to the molecule of their own block, whether it stands above or below them.

Tests used:
GAL4-PER2 (mouse) [1] = target: GAL4-PER2 (mouse) (UniProt O54943); experiment: two-hybrid; mammalian two-hybrid in HER911 cells: Gal4 DBD fusion and VP16 fusion co-transfected with the GAL4-based luciferase reporter pFR-luc and pCMV-lacZ; luciferase normalised to beta-galactosidase; reporter alone set to 1
GAL4-PER2 (mouse) [2] = target: GAL4-PER2 (mouse) (UniProt O54943); experiment: two-hybrid; mammalian two-hybrid in cos-7 cells: Gal4 DBD fusion and VP16 fusion co-transfected with pFR-luc and pCMV-lacZ; reporter alone set to 1
[3] = target: GAL4-BMAL1ΔC-term (mouse); experiment: two-hybrid; mammalian two-hybrid in HER911 cells: Gal4 DBD fusion and VP16 fusion co-transfected with the GAL4-based luciferase reporter pFR-luc and pCMV-lacZ; luciferase normalised to beta-galactosidase; reporter alone set to 1
[4] = target: GAL4-BMAL1ΔPAS B/C-term (mouse); experiment: as above
GAL4-CLOCK (mouse) = GAL4-CLOCK (mouse) (UniProt O08785); experiment: as above
GAL4-BMAL1 (mouse) [5] = experiment: as above
GAL4-BMAL1 (mouse) [6] = experiment: two-hybrid; mammalian two-hybrid in cos-7 cells: Gal4 DBD fusion and VP16 fusion co-transfected with pFR-luc and pCMV-lacZ; reporter alone set to 1
GAL4-CRY1 (mouse) [7] = target: GAL4-CRY1 (mouse) (UniProt P97784); experiment: two-hybrid; mammalian two-hybrid in HER911 cells: Gal4 DBD fusion and VP16 fusion co-transfected with the GAL4-based luciferase reporter pFR-luc and pCMV-lacZ; luciferase normalised to beta-galactosidase; reporter alone set to 1
GAL4-CRY2 (mouse) [8] = target: GAL4-CRY2 (mouse) (UniProt Q9R194); experiment: as above
GAL4-CRY1 (mouse) [9] = target: GAL4-CRY1 (mouse) (UniProt P97784); experiment: two-hybrid; mammalian two-hybrid in cos-7 cells: Gal4 DBD fusion and VP16 fusion co-transfected with pFR-luc and pCMV-lacZ; reporter alone set to 1
GAL4-CRY2 (mouse) [10] = target: GAL4-CRY2 (mouse) (UniProt Q9R194); experiment: as above
[11] = target: GAL4-BMAL1ΔC-term (mouse); experiment: two-hybrid; mammalian two-hybrid in HER911 cells: Gal4 DBD fusion and VP16 fusion co-transfected with the GAL4-based luciferase reporter pFR-luc and pCMV-lacZ; luciferase normalised to beta-galactosidase; reporter alone set to 1; remark: listed apart in the source
GAL4-BMAL1 (mouse) [12] = experiment: as above; remark: listed apart in the source
[13] = target: GAL4-BMAL1ΔHLH/PAS A (mouse); experiment: as above

UniProt O54943, sequence (O54943 whole entry, the tested form may be a part): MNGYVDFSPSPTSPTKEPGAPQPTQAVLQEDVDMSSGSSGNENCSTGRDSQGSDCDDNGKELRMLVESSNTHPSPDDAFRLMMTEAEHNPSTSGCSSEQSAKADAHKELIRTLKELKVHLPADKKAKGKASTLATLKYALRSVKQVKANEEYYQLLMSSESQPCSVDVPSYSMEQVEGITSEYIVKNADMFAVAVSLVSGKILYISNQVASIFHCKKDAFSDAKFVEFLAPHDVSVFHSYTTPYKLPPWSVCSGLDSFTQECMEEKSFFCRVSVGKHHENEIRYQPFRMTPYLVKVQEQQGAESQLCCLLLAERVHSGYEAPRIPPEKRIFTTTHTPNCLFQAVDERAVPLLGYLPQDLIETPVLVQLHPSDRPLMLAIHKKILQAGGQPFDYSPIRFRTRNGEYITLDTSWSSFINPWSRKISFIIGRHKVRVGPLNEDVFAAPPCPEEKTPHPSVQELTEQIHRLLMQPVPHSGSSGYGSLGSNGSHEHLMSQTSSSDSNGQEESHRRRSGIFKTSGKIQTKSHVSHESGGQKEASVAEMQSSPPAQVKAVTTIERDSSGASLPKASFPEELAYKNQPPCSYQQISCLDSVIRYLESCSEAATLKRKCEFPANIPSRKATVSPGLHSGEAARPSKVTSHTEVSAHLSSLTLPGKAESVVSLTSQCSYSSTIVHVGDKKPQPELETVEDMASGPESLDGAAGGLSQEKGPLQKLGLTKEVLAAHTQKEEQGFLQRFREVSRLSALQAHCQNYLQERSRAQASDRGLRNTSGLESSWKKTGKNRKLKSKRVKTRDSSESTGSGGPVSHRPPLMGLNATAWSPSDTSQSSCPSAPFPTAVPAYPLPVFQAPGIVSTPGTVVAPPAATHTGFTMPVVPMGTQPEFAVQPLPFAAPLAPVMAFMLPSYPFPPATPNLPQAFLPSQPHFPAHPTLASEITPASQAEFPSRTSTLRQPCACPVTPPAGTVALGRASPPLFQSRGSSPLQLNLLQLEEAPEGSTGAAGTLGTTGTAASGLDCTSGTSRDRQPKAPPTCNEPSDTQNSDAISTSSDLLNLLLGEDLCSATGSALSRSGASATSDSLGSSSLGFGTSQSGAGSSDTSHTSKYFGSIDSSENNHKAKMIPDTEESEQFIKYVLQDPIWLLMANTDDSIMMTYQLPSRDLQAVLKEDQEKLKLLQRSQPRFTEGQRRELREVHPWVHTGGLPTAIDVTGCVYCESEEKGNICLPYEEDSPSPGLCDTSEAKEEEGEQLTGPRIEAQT
UniProt O08785, sequence (O08785 whole entry, the tested form may be a part): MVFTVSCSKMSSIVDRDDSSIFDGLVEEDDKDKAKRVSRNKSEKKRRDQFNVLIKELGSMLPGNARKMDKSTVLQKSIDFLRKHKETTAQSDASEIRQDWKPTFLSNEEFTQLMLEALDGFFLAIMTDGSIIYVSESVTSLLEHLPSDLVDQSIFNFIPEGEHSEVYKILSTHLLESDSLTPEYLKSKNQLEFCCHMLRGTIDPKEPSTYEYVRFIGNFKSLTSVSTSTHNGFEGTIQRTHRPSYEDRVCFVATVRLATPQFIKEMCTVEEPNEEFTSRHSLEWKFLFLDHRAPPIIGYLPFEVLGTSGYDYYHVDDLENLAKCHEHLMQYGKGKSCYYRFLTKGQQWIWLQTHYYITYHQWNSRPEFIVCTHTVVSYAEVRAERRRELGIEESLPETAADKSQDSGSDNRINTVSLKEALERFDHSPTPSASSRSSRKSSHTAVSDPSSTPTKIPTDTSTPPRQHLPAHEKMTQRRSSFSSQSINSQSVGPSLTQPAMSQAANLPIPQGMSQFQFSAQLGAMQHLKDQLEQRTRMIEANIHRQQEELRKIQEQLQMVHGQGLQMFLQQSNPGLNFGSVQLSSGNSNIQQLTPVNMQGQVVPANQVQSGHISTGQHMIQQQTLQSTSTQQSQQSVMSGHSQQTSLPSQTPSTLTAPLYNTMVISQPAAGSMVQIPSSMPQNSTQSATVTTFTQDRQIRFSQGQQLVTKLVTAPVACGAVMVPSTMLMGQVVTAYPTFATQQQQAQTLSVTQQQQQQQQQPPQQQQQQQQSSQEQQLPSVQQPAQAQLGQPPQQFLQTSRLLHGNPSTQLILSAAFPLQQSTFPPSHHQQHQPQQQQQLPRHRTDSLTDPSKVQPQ

- fold luciferase activity over reporter alone (GAL4-PER2 (mouse) [1]): 110 fold
- fold luciferase activity over reporter alone (GAL4-PER2 (mouse) [2]): 55 fold
Molecule: CLOCK-VP16 (from UniProt O08785 1-855) (natural protein)

- fold luciferase activity over reporter alone [3]: 150 fold
- fold luciferase activity over reporter alone [4]: 5 fold
- fold luciferase activity over reporter alone (GAL4-CLOCK (mouse)): 75 fold
- fold luciferase activity over reporter alone (GAL4-BMAL1 (mouse) [5]): 1000 fold
- fold luciferase activity over reporter alone (GAL4-BMAL1 (mouse) [6]): 200 fold
Molecule: PER2-VP16 (from UniProt O54943 1-1257) (natural protein)

- fold luciferase activity over reporter alone (GAL4-PER2 (mouse) [1]): 110 fold
- fold luciferase activity over reporter alone (GAL4-CRY1 (mouse) [7]): 70 fold
- fold luciferase activity over reporter alone (GAL4-CRY2 (mouse) [8]): 10 fold
- fold luciferase activity over reporter alone (GAL4-PER2 (mouse) [2]): 2900 fold
- fold luciferase activity over reporter alone (GAL4-CRY1 (mouse) [9]): 450 fold
- fold luciferase activity over reporter alone (GAL4-CRY2 (mouse) [10]): 125 fold
Molecule: BMAL1-VP16 (natural protein)

- fold luciferase activity over reporter alone [11]: 50 fold
- fold luciferase activity over reporter alone (GAL4-BMAL1 (mouse) [12]): 750 fold
- fold luciferase activity over reporter alone (GAL4-BMAL1 (mouse) [6]): 110 fold
B1: CRY1-VP16 (natural protein)
chain: MGVNAVHWFRKGLRLHDNPALKECIQGADTIRCVYILDPWFAGSSNVGINRWRFLLQCLEDLDANLRKLNSRLFVIRGQPADVFPRLFKEWNITKLSIEYDSEPFGKERDAAIKKLATEAGVEVIVRISHTLYDLDKIIELNGGQPPLTYKRFQTLVSKMEPLEMPADTITSDVIGKCMTPLSDDHDEKYGVPSLEELGFDTDGLSSAVWPGGETEALTRLERHLERKAWVANFERPRMNANSLLASPTGLSPYLRFGCLSCRLFYFKLTDLYKKVKKNSSPPLSLYGQLLWREFFYTAATNNPRFDKMEGNPICVQIPWDKNPEALAKWAEGRTGFPWIDAIMTQLRQEGWIHHLARHAVACFLTRGDLWISWEEGMKVFEELLLDADWSINAGSWMWLSCSSFFQQFFHCYCPVGFGRRTDPNGDYIRRYLPVLRGFPAKYIYDPWNAPEGIQKVAKCLIGVNYPKPMVNHAEASRLNIERMKQIYQQLSRYRGLGLLASVPSNSNGNGGLMGYAPGENVPSCSSSGNGGLMGYAPGENVPSCSGGNCSQGSGILHYAHGDSQQTHSLKQGRSSAGTGLSSGKRPSQEEDAQSVGPKVQRQSSN

- fold luciferase activity over Gal4-Bmal1ΔHLH/PAS A alone [13]: 3 fold
- fold luciferase activity over reporter alone (GAL4-BMAL1 (mouse) [12]): 950 fold
- fold luciferase activity over reporter alone (GAL4-BMAL1 (mouse) [6]): 70 fold
B2: CRY2-VP16 (natural protein)
chain: MAAAAVVAATVPAQSMGADGASSVHWFRKGLRLHDNPALLAAVRGARCVRCVYILDPWFAASSSVGINRWRFLLQSLEDLDTSLRKLNSRLFVVRGQPADVFPRLFKEWGVTRLTFEYDSEPFGKERDAAIMKMAKEAGVEVVTENSHTLYDLDRIIELNGQKPPLTYKRFQALISRMELPKKPAVAVSSQQMESCRAEIQENHDDTYGVPSLEELGFPTEGLGPAVWQGGETEALARLDKHLERKAWVANYERPRMNANSLLASPTGLSPYLRFGCLSCRLFYYRLWDLYKKVKRNSTPPLSLFGQLLWREFFYTAATNNPRFDRMEGNPICIQIPWDRNPEALAKWAEGKTGFPWIDAIMTQLRQEGWIHHLARHAVACFLTRGDLWVSWESGVRVFDELLLDADFSVNAGSWMWLSCSAFFQQFFHCYCPVGFGRRTDPSGDYIRRYLPKLKGFPSRYIYEPWNAPESVQKAAKCIIGVDYPRPIVNHAETSRLNIERMKQIYQQLSRYRGLCLLASVPSCVEDLSHPVAEPGSSQAGSISNTGPRALSSGPASPKRKLEAAEEPPGEELTKRARVTEMPTQEPASKDS
